Assay results as given in the supplement of paper PMC10598134.
± gives the standard deviation.

Experiment: collision cross section of modified peptide (TIMS, N2, iRT-aligned); higher = larger / more extended gas-phase ion
Outline: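 Collision cross section was derived from the Mason-Schamp equation. Each value averages 1–3 technical replicates of the most abundant feature per charge state, measured on a timsTOF Pro/HT in dda-PASEF mode (nitrogen, ~2.4 mbar) after a 120-min nanoflow C18 gradient at 60 °C. Synthetic peptide pools (~100 fmol/µL in 2% acetonitrile/0.1% formic acid, iRT standard spiked 1:40) were identified with MaxQuant, and 1/K0 was calibrated with three reference ions and aligned run-wise to the median iRT peptide deviation.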

[1] = charge state: 2, modification: Acetyl (K)
[2] = charge state: 3, modification: Acetyl (K)
[3] = charge state: 2, modification: Biotin
[4] = charge state: 2, modification: Butyryl
[5] = charge state: 3, modification: Butyryl
[6] = charge state: 2, modification: Crotonyl
[7] = charge state: 3, modification: Crotonyl
[8] = charge state: 2, modification: Dimethyl (K)
[9] = charge state: 3, modification: Dimethyl (K)
[10] = charge state: 2, modification: Formyl
[11] = charge state: 2, modification: Glutarylation
[12] = charge state: 3, modification: Glutarylation
[13] = charge state: 2, modification: GlyGly (K)
[14] = charge state: 3, modification: GlyGly (K)
[15] = charge state: 2, modification: Malonyl
[16] = charge state: 2, modification: Methyl (K)
[17] = charge state: 3, modification: Methyl (K)
[18] = charge state: 3, modification: Propionyl
[19] = charge state: 2, modification: Succinyl
[20] = charge state: 3, modification: Succinyl
[21] = charge state: 2, modification: Trimethyl (K)
[22] = charge state: 3, modification: Trimethyl (K)
[23] = charge state: 2, modification: hydroxyisobutyryl
[24] = charge state: 3, modification: hydroxyisobutyryl
[25] = charge state: 2, modification: HexNAc (ST)
[26] = charge state: 2, modification: Citrullination (R)
[27] = charge state: 3, modification: Methyl (R)
[28] = charge state: 3, modification: Citrullination (R)

For SPDEAYAIAKK [_SPDEAYAIAK(Acetyl (K))K_], the collision cross section [1] was 369.21 ± 0.94 Å² and the collision cross section [2] was 447.3 ± 0.6 Å².

SPDEAYAIAKK [_SPDEAYAIAK(Biotin)K_] gave a collision cross section [3] of 394.29 ± 1.1 Å².

Sequence SPDEAYAIAKK [_SPDEAYAIAK(Butyryl)K_] has a collision cross section [4] of 376.59 ± 1.2 Å² and a collision cross section [5] of 446.36 ± 0.47 Å².

Sequence SPDEAYAIAKK [_SPDEAYAIAK(Crotonyl)K_] has a collision cross section [6] of 376.34 ± 0.8 Å² and a collision cross section [7] of 442.81 ± 1.6 Å².

For “SPDEAYAIAKK [_SPDEAYAIAK(Dimethyl (K))K_]”, the collision cross section [8] was 376.23 ± 0.37 Å² and the collision cross section [9] was 437.31 ± 0.63 Å².

In the case of SPDEAYAIAKK [_SPDEAYAIAK(Formyl)K_], the collision cross section [10] is reported as 364.33 ± 1 Å².

With “SPDEAYAIAKK [_SPDEAYAIAK(Gluratylation)K_]” the collision cross section [11] was 380.21 ± 0.73 Å² and the collision cross section [12] was 455.46 ± 1.2 Å².

Work on SPDEAYAIAKK [_SPDEAYAIAK(GlyGly (K))K_] yielded a collision cross section [13] of 383.65 ± 0.88 Å² and a collision cross section [14] of 448.77 ± 3 Å².

With SPDEAYAIAKK [_SPDEAYAIAK(Malonyl)K_] the collision cross section [15] was 371.15 ± 0.62 Å².

For SPDEAYAIAKK [_SPDEAYAIAK(Methyl (K))K_], the collision cross section [16] was 372.23 ± 0.47 Å² and the collision cross section [17] was 436.75 ± 4.3 Å².

SPDEAYAIAKK [_SPDEAYAIAK(Propionyl)K_] showed a collision cross section (charge state: 2, modification: Propionyl) of 373.53 ± 0.94 Å² and a collision cross section [18] of 448.43 ± 0.74 Å².

Work on SPDEAYAIAKK [_SPDEAYAIAK(Succinyl)K_] yielded a collision cross section [19] of 374.28 ± 0.24 Å² and a collision cross section [20] of 452.6 ± 2.6 Å².

In the case of “SPDEAYAIAKK [_SPDEAYAIAK(Trimethyl (K))K_]”, the collision cross section [21] is reported as 381.12 ± 1.2 Å² and the collision cross section [22] is reported as 449.09 Å².

“SPDEAYAIAKK [_SPDEAYAIAK(hydroxyisobutyryl)K_]” showed a collision cross section [23] of 377.18 ± 1.4 Å² and a collision cross section [24] of 453.4 ± 3.9 Å².

Sequence “SPPLPEHQKIPCNSAEPK [_SPPLPEHQK(Butyryl)IPCNSAEPK_]” has a collision cross section [5] of 542.36 ± 2 Å².

With “SPPLPEHQKIPCNSAEPK [_SPPLPEHQK(Gluratylation)IPCNSAEPK_]” the collision cross section [12] was 541.53 Å².

With “SPPLPEHQKIPCNSAEPK [_SPPLPEHQK(GlyGly (K))IPCNSAEPK_]” the collision cross section [14] was 516.26 Å².

Work on “SPPLPEHQKIPCNSAEPK [_SPPLPEHQK(Methyl (K))IPCNSAEPK_]” yielded a collision cross section [17] of 546.75 Å².

“SPPLPEHQKIPCNSAEPK [_SPPLPEHQK(Succinyl)IPCNSAEPK_]” showed a collision cross section [20] of 539.73 ± 2.2 Å².

“SPPLPEHQKIPCNSAEPK [_SPPLPEHQK(hydroxyisobutyryl)IPCNSAEPK_]” gave a collision cross section [24] of 544.57 Å².

In the case of “SPSDSGYSYETIGKTTK [_SPSDSGYSYETIGK(Acetyl (K))TTK_]”, the collision cross section [1] is reported as 448.1 ± 2.3 Å² and the collision cross section [2] is reported as 524.63 ± 0.47 Å².

In the case of “SPSDSGYSYETIGKTTK [_SPSDSGYSYETIGK(Butyryl)TTK_]”, the collision cross section [4] is reported as 455.62 ± 0.51 Å² and the collision cross section [5] is reported as 527.5 ± 2.7 Å².

Work on “SPSDSGYSYETIGKTTK [_SPSDSGYSYETIGK(Crotonyl)TTK_]” yielded a collision cross section [6] of 455.39 ± 0.82 Å² and a collision cross section [7] of 528.2 ± 1.2 Å².

With “SPSDSGYSYETIGKTTK [_SPSDSGYSYETIGK(Dimethyl (K))TTK_]” the collision cross section [8] was 470.19 ± 1.3 Å² and the collision cross section [9] was 515.36 ± 1.6 Å².

With “SPSDSGYSYETIGKTTK [_SPSDSGYSYETIGK(Formyl)TTK_]” the collision cross section [10] was 446.06 ± 0.77 Å² and the collision cross section (charge state: 3, modification: Formyl) was 518.69 ± 1.8 Å².

Sequence “SPSDSGYSYETIGKTTK [_SPSDSGYSYETIGK(Gluratylation)TTK_]” has a collision cross section [11] of 456.74 ± 1.5 Å² and a collision cross section [12] of 531.96 ± 0.12 Å².

“SPSDSGYSYETIGKTTK [_SPSDSGYSYETIGK(GlyGly (K))TTK_]” gave a collision cross section [13] of 483.23 ± 1.5 Å² and a collision cross section [14] of 532.2 ± 3.5 Å².

With “SPSDSGYSYETIGKTTK [_SPSDSGYSYETIGK(Malonyl)TTK_]” the collision cross section [15] was 450.66 ± 0.58 Å² and the collision cross section (charge state: 3, modification: Malonyl) was 526.41 Å².

In the case of “SPSDSGYSYETIGKTTK [_SPSDSGYSYETIGK(Methyl (K))TTK_]”, the collision cross section [16] is reported as 466.86 ± 1.2 Å² and the collision cross section [17] is reported as 512.24 ± 3.8 Å².

“SPSDSGYSYETIGKTTK [_SPSDSGYSYETIGK(Propionyl)TTK_]” showed a collision cross section [18] of 528.1 Å².

With “SPSDSGYSYETIGKTTK [_SPSDSGYSYETIGK(Succinyl)TTK_]” the collision cross section [19] was 453.06 ± 1.1 Å² and the collision cross section [20] was 530.11 ± 3 Å².

With “SPSDSGYSYETIGKTTK [_SPSDSGYSYETIGK(Trimethyl (K))TTK_]” the collision cross section [21] was 455.09 ± 0.58 Å² and the collision cross section [22] was 517.28 ± 2.4 Å².

“SPSDSGYSYETIGKTTK [_SPSDSGYSYETIGK(hydroxyisobutyryl)TTK_]” gave a collision cross section [23] of 457.69 ± 0.57 Å² and a collision cross section [24] of 538.76 ± 2.8 Å².

For “SQAGASELGPFSDPR [_SQAGASELGPFS(HexNAc (ST))DPR_]”, the collision cross section [25] was 425.39 ± 1.3 Å².

Work on SQLANTEPTK [_SQLANT(HexNAc (ST))EPTK_] yielded a collision cross section [25] of 372.78 ± 0.59 Å².

For “SRFYSGFNSR [_SR(Citrullination (R))FYSGFNSR_]”, the collision cross section [26] was 364.39 ± 0.53 Å².

With SRFYSGFNSR [_SR(Methyl (R))FYSGFNSR_] the collision cross section (charge state: 2, modification: Methyl (R)) was 375.99 ± 1.6 Å² and the collision cross section [27] was 436.64 ± 3.4 Å².

“SRGAIISQYYNR [_SR(Citrullination (R))GAIISQYYNR_]” gave a collision cross section [26] of 408.9 ± 1.3 Å² and a collision cross section [28] of 483.76 Å².

“SRGAIISQYYNR [_SR(Methyl (R))GAIISQYYNR_]” showed a collision cross section [27] of 476.32 ± 1.6 Å².

In the case of “SRGGGGNFGPGPGSNFR [_SR(Citrullination (R))GGGGNFGPGPGSNFR_]”, the collision cross section [28] is reported as 461.31 ± 6.4 Å².

Work on “SRGGGGNFGPGPGSNFR [_SR(Methyl (R))GGGGNFGPGPGSNFR_]” yielded a collision cross section [27] of 461.66 ± 1.4 Å².

In the case of SSDLTDRVK [_S(HexNAc (ST))SDLTDRVK_], the collision cross section [25] is reported as 362.74 ± 0.12 Å² and the collision cross section (charge state: 3, modification: HexNAc (ST)) is reported as 449.63 ± 1.1 Å².

“SSFAYKDQNENR [_SSFAYK(Acetyl (K))DQNENR_]” gave a collision cross section [1] of 398.41 ± 1.4 Å² and a collision cross section [2] of 457.8 ± 0.27 Å².

In the case of SSFAYKDQNENR [_SSFAYK(Biotin)DQNENR_], the collision cross section [3] is reported as 421.15 ± 1.9 Å² and the collision cross section (charge state: 3, modification: Biotin) is reported as 490.01 ± 0.34 Å².

In the case of SSFAYKDQNENR [_SSFAYK(Butyryl)DQNENR_], the collision cross section [4] is reported as 402.63 ± 0.85 Å² and the collision cross section [5] is reported as 462.59 ± 3.8 Å².

Work on SSFAYKDQNENR [_SSFAYK(Crotonyl)DQNENR_] yielded a collision cross section [6] of 403.46 ± 0.27 Å² and a collision cross section [7] of 461.83 ± 1.6 Å².

Sequence “SSFAYKDQNENR [_SSFAYK(Dimethyl (K))DQNENR_]” has a collision cross section [8] of 406.82 ± 0.47 Å² and a collision cross section [9] of 455.28 ± 0.51 Å².

SSFAYKDQNENR [_SSFAYK(Formyl)DQNENR_] showed a collision cross section [10] of 394.76 ± 0.75 Å².

“SSFAYKDQNENR [_SSFAYK(Gluratylation)DQNENR_]” gave a collision cross section [11] of 404.81 ± 0.5 Å² and a collision cross section [12] of 472.81 ± 1.2 Å².

“SSFAYKDQNENR [_SSFAYK(GlyGly (K))DQNENR_]” showed a collision cross section [13] of 412.56 ± 1.4 Å² and a collision cross section [14] of 465.62 ± 2 Å².

With SSFAYKDQNENR [_SSFAYK(Malonyl)DQNENR_] the collision cross section [15] was 401.56 ± 0.03 Å².

“SSFAYKDQNENR [_SSFAYK(Methyl (K))DQNENR_]” gave a collision cross section [16] of 422.28 ± 0.64 Å² and a collision cross section [17] of 455.52 ± 4 Å².
